Target: scMad1^E–scMad2 complex (S. cerevisiae) (UniProt P40957)
Test: ITC; 20°C; 25 mM HEPES pH 7.5, 150 mM NaCl; scMad1 proteins (20 µM) in the cell; scBub1 phospho-peptides or phosphorylated scBub1_(449–530) (300 µM) injected

scMad1^E–scMad2 complex (S. cerevisiae), sequence (P40957 whole entry, chain 1 of 2): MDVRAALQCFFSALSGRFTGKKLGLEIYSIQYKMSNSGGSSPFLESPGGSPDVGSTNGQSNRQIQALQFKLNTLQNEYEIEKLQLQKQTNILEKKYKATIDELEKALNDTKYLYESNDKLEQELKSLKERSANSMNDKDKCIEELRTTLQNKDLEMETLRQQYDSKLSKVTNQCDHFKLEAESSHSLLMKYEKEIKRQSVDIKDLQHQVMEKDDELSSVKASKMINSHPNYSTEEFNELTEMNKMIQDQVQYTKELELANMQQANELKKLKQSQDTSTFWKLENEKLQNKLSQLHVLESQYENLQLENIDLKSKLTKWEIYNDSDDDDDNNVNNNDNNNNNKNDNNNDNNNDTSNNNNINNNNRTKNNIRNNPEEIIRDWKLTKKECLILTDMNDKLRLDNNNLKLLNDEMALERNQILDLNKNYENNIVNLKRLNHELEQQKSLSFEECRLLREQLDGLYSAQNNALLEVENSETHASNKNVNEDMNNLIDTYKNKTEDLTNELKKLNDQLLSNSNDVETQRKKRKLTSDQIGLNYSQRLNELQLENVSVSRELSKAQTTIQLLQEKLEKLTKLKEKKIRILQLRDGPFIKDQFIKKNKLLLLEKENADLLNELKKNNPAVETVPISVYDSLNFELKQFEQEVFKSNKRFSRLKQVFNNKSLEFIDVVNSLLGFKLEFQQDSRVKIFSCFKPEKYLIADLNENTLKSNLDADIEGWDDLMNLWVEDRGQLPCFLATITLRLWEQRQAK
scMad1^E–scMad2 complex (S. cerevisiae), sequence (P40958 whole entry, chain 2 of 2, further chain): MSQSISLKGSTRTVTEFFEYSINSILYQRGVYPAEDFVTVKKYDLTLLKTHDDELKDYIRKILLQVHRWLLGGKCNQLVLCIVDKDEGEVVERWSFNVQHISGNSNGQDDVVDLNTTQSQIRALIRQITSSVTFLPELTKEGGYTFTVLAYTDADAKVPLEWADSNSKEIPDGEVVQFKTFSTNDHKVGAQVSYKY

B1: Mps1-phosphorylated scBub1_(449–530) fragment (domain or fragment)
chain: SRSPTVTAFSKDAINEVFSMFNQHYSTPGALLDGDDTTTSKFNVFENFTQEFTAKNIEDLTEVKDPKQETVSQQTTSTNETN
modifications: phosphothreonine at 453, phosphothreonine at 455, phosphoserine at 458 (mass spectrometry; co-expressed with scMps1)
Kd: 2.2 µM
